Experiment [1] addresses GST-tagged HPV16 E6 with its PDZ binding motif deleted (human papillomavirus type 16).
Experiment [2] has the same target. Put plainly: pull-down; purified GST fusion proteins on glutathione-conjugated agarose incubated with equal amounts of in vitro-translated HA-AurA, 1 h at room temperature; washed 3 times with PBS containing 0.1% Tween 20; bound AurA detected by Western blotting with an HA-specific antibody; bands quantified with ImageJ relative to GST-16E6 (n = 3).
Experiment [3] has as its target T1, GST-tagged HPV16 E6 S150A (human papillomavirus type 16, UniProt P03126 1-158, S150A). Put plainly: cell-based or functional assay.
The target of experiment [4] is T2, GST-tagged HPV16 E6 S89A (human papillomavirus type 16, UniProt P03126 1-158, S89A). In words: cell-based or functional assay.
In experiment [5] the target is GST-tagged HPV16 E6 wild type (human papillomavirus type 16, UniProt P03126 1-158). Put plainly: cell-based or functional assay.
The target in experiment [6] is T3, GST-tagged HPV16 E6 T140A (human papillomavirus type 16, UniProt P03126 1-158, T140A). In words: cell-based or functional assay.
For experiment [7], the target named is T4, GST-tagged HPV16 E6 S145A (human papillomavirus type 16, UniProt P03126 1-158, S145A). Put plainly: cell-based or functional assay.
For experiment [8], the target named is T1, GST-tagged HPV16 E6 S150A. In words: pull-down; purified GST fusion proteins on glutathione-conjugated agarose incubated with equal amounts of in vitro-translated HA-AurA, 1 h at room temperature; washed 3 times with PBS containing 0.1% Tween 20; bound AurA detected by Western blotting with an HA-specific antibody; bands quantified with ImageJ relative to GST-16E6 (n = 3). As to conditions: one partner purified. (Immunoblotting shows a protein as a band on a membrane.)

The target in experiment [9] is T2, GST-tagged HPV16 E6 S89A. The experiment is described as above. The note with it: one partner purified.
A further experiment deals with T5, GST-tagged HPV16 E7 (human papillomavirus type 16, UniProt P03129 1-98).
T5 construct: E7 oncoprotein of human papillomavirus type 16; also called GST-16 E7; HPVE7; source: E. coli, purified GST fusion protein
T5 sequence: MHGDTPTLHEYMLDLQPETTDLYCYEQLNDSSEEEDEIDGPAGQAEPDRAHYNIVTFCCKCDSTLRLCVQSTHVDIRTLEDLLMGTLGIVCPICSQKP
The experiment is described as above. The note with it: one partner purified.

The next experiment addresses T6, GST-tagged HPV18 E6 (human papillomavirus type 18, UniProt P06463 1-158).
T6 construct: E6 oncoprotein of human papillomavirus type 18; construct pGEX2T:HPV-18 E6; also called GST-18E6; source: E. coli, IPTG-induced, purified on glutathione-conjugated agarose
Described as above. As to conditions: one partner purified.

The target in a further experiment is T7, GST-tagged HPV58 E6 (human papillomavirus type 58, UniProt P26555 1-149).
T7 construct: E6 oncoprotein of human papillomavirus type 58; construct pGEX2T:HPV-58 E6; also called GST-58E6; source: E. coli, IPTG-induced, purified on glutathione-conjugated agarose
T7 sequence: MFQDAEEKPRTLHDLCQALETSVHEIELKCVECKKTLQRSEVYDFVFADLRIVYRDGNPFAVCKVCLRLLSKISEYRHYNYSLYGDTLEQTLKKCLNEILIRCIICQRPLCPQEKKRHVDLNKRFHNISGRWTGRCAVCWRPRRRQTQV
Described as above. The note with it: one partner purified.

The target of another experiment is T8, GST-tagged HPV11 E6 (human papillomavirus type 11, UniProt P04019 1-150).
T8 construct: E6 protein of human papillomavirus type 11 (low-risk type); construct pGEX2T:HPV-11 E6; also called GST-11E6; lr-HPV11E6; source: E. coli, IPTG-induced, purified on glutathione-conjugated agarose
T8 sequence: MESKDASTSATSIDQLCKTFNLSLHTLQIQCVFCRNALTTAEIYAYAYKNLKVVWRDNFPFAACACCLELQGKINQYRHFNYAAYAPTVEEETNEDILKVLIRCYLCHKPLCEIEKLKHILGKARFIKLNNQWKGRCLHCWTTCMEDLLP
The description is as above. As to conditions: one partner purified.

Experiment [10] addresses T3, GST-tagged HPV16 E6 T140A. The description is as above. The note with it: one partner purified.
Experiment [11] addresses T4, GST-tagged HPV16 E6 S145A. The experiment is described as above. The note with it: one partner purified.

As for “Aurora kinase A (HA-AurA, in vitro translated) (from UniProt O14965 1-403) (enzyme)”, the AurA kinase activity (ADP-Glo) of purified AurA in the presence of GST-E6 ΔPBM, relative to AurA with GST alone in [1] worked out at 0.85. In addition, the AurA bound relative to GST-16E6 (%) in experiment [2] amounted to 87%.

B1: Aurora kinase A (HA-AurA, in vitro translated) (enzyme, UniProt O14965 1-403, looked up)
chain: MDRSKENCISGPVKATAPVGGPKRVLVTQQFPCQNPLPVNSGQAQRVLCPSNSSQRIPLQAQKLVSSHKPVQNQKQKQLQATSVPHPVSRPLNNTQKSKQPLPSAPENNPEEELASKQKNEESKKRQWALEDFEIGRPLGKGKFGNVYLAREKQSKFILALKVLFKAQLEKAGVEHQLRREVEIQSHLRHPNILRLYGYFHDATRVYLILEYAPLGTVYRELQKLSKFDEQRTATYITELANALSYCHSKRVIHRDIKPENLLLGSAGELKIADFGWSVHAPSSRRTTLCGTLDYLPPEMIEGRMHDEKVDLWSLGVLCYEFLVGKPPFEANTYQETYKRISRVEFTFPDFVTEGARDLISRLLKHNPSQRPMLREVLEHPWITANSSKPSNCQNKESASKQS
notes: Aurora kinase A (AurA); plasmid pcDNA3.1:HA-AurA; the functional rows are written on this molecule; source: in vitro translated (TNT Coupled Reticulocyte Lysate System, Promega)
Turning to B1, the “AurA kinase activity (ADP-Glo) of purified AurA in the presence of GST-E6 S150A, relative to AurA with GST alone” value in experiment [3] came to 0.68. Further, the “AurA kinase activity (ADP-Glo) of purified AurA in the presence of GST-E6 S89A, relative to AurA with GST alone” value with GST-tagged HPV16 E6 S89A [4] was found to be 0.65. In [5], the “AurA kinase activity (ADP-Glo) of purified AurA in the presence of GST-E6, relative to AurA with GST alone” value came out at 0.85. The “AurA kinase activity (ADP-Glo) of purified AurA in the presence of GST-E6 T140A, relative to AurA with GST alone” value in experiment [6] came out at 0.61. Also, in experiment [7], the “AurA kinase activity (ADP-Glo) of purified AurA in the presence of GST-E6 S145A, relative to AurA with GST alone” value was 0.68. Further, the “AurA bound relative to GST-16E6 wild type (%)” value was found to be 56% in experiment [8], 67.3% with GST-tagged HPV16 E6 S89A [9], 25.3% in experiment [10] and 24% in experiment [11]. The “AurA bound relative to GST-16E6 (%)” value in the experiment with GST-tagged HPV16 E7 came to 37.3%; with GST-tagged HPV18 E6, 102%; with GST-tagged HPV58 E6 it was 158%; with GST-tagged HPV11 E6, 12%.

(Values after article PMC9972942, “E6-Encoded by Cancer-Causing Human Papillomavirus Interacts with Aurora Kinase A To Promote HPV-Mediated Carcinogenesis” (Journal of Virology, 2023).)
